Literature values as cited in patent US20200069786A1, “COMPOSITION AND PROCESS FOR PREPARING VACCINE” (TREOS BIO ZRT., priority 2018, published 2020).
Where two headings read alike, the source gives them in different places.

Test system: TSA
[1] = TSA expression rate in Esophageal
[2] = TSA expression rate in PROSTATE cancer
[3] = TSA expression rate in BLADDER cancer
[4] = TSA expression rate in HEAD and NECK
[5] = TSA expression rate in LUNG cancer
[6] = TSA expression rate in MELANOMA
[7] = TSA expression rate in GASTRIC cancer
[8] = TSA expression rate in LEUKEMIAS
[9] = TSA expression rate in LYMPHOMAS
[10] = TSA expression rate in PEDIATRIC

| Molecule | TSA Expression Rate (ER) (BREAST) [%] | TSA Expression Rate (ER) (LUNG) [%] | Expression Rate (ER) % [1] [%] | Expression Rate (ER) % (TSA expression rate in Kidney) [%] | Expression Rate (ER) % [2] [%] | TSA Expression Rate (ER) (THYROID) [%] | Expression Rate (ER) % [3] [%] | Expression Rate (ER) % (TSA expression rate in CRC) [%] | Expression Rate (ER) % [4] [%] | Expression Rate (ER) % [5] [%] | Expression Rate (ER) % [6] [%] | TSA Expression Rate (ER) (BRAIN) [%] | TSA Expression Rate (ER) (HCC) [%] | TSA Expression Rate (ER) (OVARIAN) [%] | TSA Expression Rate (ER) (PANCREATIC) [%] | Expression Rate (ER) % (TSA expression rate in Cervical cancer) [%] | Expression Rate (ER) % [7] [%] | Expression Rate (ER) % [8] [%] | Expression Rate (ER) % [9] [%] | Expression Rate (ER) % [10] [%] |
| --- | --- | --- | --- | --- | --- | --- | --- | --- | --- | --- | --- | --- | --- | --- | --- | --- | --- | --- | --- | --- |
| FMR1NB (protein, UniProt Q8N0W7 1-255, looked up) FMR1 neighbor protein: MSSHRRKAKGRNRRSHRAMRVAHLELATYELAATESNPESSHPGYEAAMADRPQPGWRESLKMRVSKPFGMLMLSIWILLFVCYYLSYYLCSGSSYFVLANGHILPNSENAHGQSLEEDSALEALLNFFFPTTCNLRENQVAKPCNELQDLSESECLRHKCCFSSSGTTSFKCFAPFRDVPKQMMQMFGLGAISLILVCLPIYCRSLFWRSEPADDLQRQDNRVVTGLKKQRRKRKRKSEMLQKAARGREEHGDE | 55 | 28 | 8 | 0 | 0 | – | – | – | – | – | – | – | – | – | – | – | – | – | – | – |
| TDRD1 (protein, UniProt Q9BXT4 1-1180, looked up) Tudor domain-containing …: MSVKSPFNVMSRNNLEAPPCKMTEPFNFEKNENKLPPHESLRSPGTLPNHPNFRLKSSENGNKKNNFLLCEQTKQYLASQEDNSVSSNPNGINGEVVGSKGDRKKLPAGNSVSPPSAESNSPPKEVNIKPGNNVRPAKSKKLNKLVENSLSISNPGLFTSLGPPLRSTTCHRCGLFGSLRCSQCKQTYYCSTACQRRDWSAHSIVCRPVQPNFHKLENKSSIETKDVEVNNKSDCPLGVTKEIAIWAERIMFSDLRSLQLKKTMEIKGTVTEFKHPGDFYVQLYSSEVLEYMNQLSASLKETYANVHEKDYIPVKGEVCIAKYTVDQTWNRAIIQNVDVQQKKAHVLYIDYGNEEIIPLNRIYHLNRNIDLFPPCAIKCFVANVIPAEGNWSSDCIKATKPLLMEQYCSIKIVDILEEEVVTFAVEVELPNSGKLLDHVLIEMGYGLKPSGQDSKKENADQSDPEDVGKMTTENNIVVDKSDLIPKVLTLNVGDEFCGVVAHIQTPEDFFCQQLQSGRKLAELQASLSKYCDQLPPRSDFYPAIGDICCAQFSEDDQWYRASVLAYASEESVLVGYVDYGNFEILSLMRLCPIIPKLLELPMQAIKCVLAGVKPSLGIWTPEAICLMKKLVQNKIITVKVVDKLENSSLVELIDKSETPHVSVSKVLLDAGFAVGEQSMVTDKPSDVKETSVPLGVEGKVNPLEWTWVELGVDQTVDVVVCVIYSPGEFYCHVLKEDALKKLNDLNKSLAEHCQQKLPNGFKAEIGQPCCAFFAGDGSWYRALVKEILPNGHVKVHFVDYGNIEEVTADELRMISSTFLNLPFQGIRCQLADIQSRNKHWSEEAITRFQMCVAGIKLQARVVEVTENGIGVELTDLSTCYPRIISDVLIDEHLVLKSASPHKDLPNDRLVNKHELQVHVQGLQATSSAEQWKTIELPVDKTIQANVLEIISPNLFYALPKGMPENQEKLCMLTAELLEYCNAPKSRPPYRPRIGDACCAKYTSDDFWYRAVVLGTSDTDVEVLYADYGNIETLPLCRVQPITSSHLALPFQIIRCSLEGLMELNGSSSQLIIMLLKNFMLNQNVMLSVKGITKNVHTVSVEKCSENGTVDVADKLVTFGLAKNITPQRQSALNTEKMYRMNCCCTELQKQVEKHEHILLFLLNNSTNQNKFIEMKKLLKS | 38 | – | 10 | 0 | 47 | 0 | 29 | 0 | 22 | 5 | 0 | – | – | – | – | – | – | – | – | – |
| SSX-4 (protein, UniProt O60224 1-188, looked up) Protein SSX4: MNGDDAFARRPRDDAQISEKLRKAFDDIAKYFSKKEWEKMKSSEKIVYVYMKLNYEVMTKLGFKVTLPPFMRSKRAADFHGNDFGNDRNHRNQVERPQMTFGSLQRIFPKIMPKKPAEEENGLKEVPEASGPQNDGKQLCPPGNPSTLEKINKTSGPKRGKHAWTHRLRERKQLVVYEEISDPEEDDE | 27 | – | 7 | 0 | – | 0 | 11 | – | 29 | 13 | 21 | 4 | 48 | 13 | 21 | 20 | 23 | 30 | 16 | 67 |
| SCP-1 (protein, UniProt Q15431 1-976, looked up) Synaptonemal complex protein 1: MEKQKPFALFVPPRSSSSQVSAVKPQTLGGDSTFFKSFNKCTEDDFEFPFAKTNLSKNGENIDSDPALQKVNFLPVLEQVGNSDCHYQEGLKDSDLENSEGLSRVYSKLYKEAEKIKKWKVSTEAELRQKESKLQENRKIIEAQRKAIQELQFGNEKVSLKLEEGIQENKDLIKENNATRHLCNLLKETCARSAEKTKKYEYEREETRQVYMDLNNNIEKMITAFEELRVQAENSRLEMHFKLKEDYEKIQHLEQEYKKEINDKEKQVSLLLIQITEKENKMKDLTFLLEESRDKVNQLEEKTKLQSENLKQSIEKQHHLTKELEDIKVSLQRSVSTQKALEEDLQIATKTICQLTEEKETQMEESNKARAAHSFVVTEFETTVCSLEELLRTEQQRLEKNEDQLKILTMELQKKSSELEEMTKLTNNKEVELEELKKVLGEKETLLYENKQFEKIAEELKGTEQELIGLLQAREKEVHDLEIQLTAITTSEQYYSKEVKDLKTELENEKLKNTELTSHCNKLSLENKELTQETSDMTLELKNQQEDINNNKKQEERMLKQIENLQETETQLRNELEYVREELKQKRDEVKCKLDKSEENCNNLRKQVENKNKYIEELQQENKALKKKGTAESKQLNVYEIKVNKLELELESAKQKFGEITDTYQKEIEDKKISEENLLEEVEKAKVIADEAVKLQKEIDKRCQHKIAEMVALMEKHKHQYDKIIEERDSELGLYKSKEQEQSSLRASLEIELSNLKAELLSVKKQLEIEREEKEKLKREAKENTATLKEKKDKKTQTFLLETPEIYWKLDSKAVPSQTVSRNFTSVDHGISKDKRDYLWTSAKNTLSTPLPKAYTVKTPTKPKLQQRENLNIPIEESKKKRKMAFEFDINSDSSETTDLLSMVSEEETLKTLYRNNNPPASHLCVKTPKKAPSSLTTPGSTLKFGAIRKMREDRWAVIAKMDRKKKLKEAEKLFV | 37 | – | 2 | 8 | – | 0 | 2 | 6 | 12 | 1 | 16 | 14 | 25 | 15 | 31 | – | 14 | 11 | 39 | – |
| MAGE-C2 (protein, UniProt Q9UBF1 1-373, looked up) Melanoma-associated antigen C2: MPPVPGVPFRNVDNDSPTSVELEDWVDAQHPTDEEEEEASSASSTLYLVFSPSSFSTSSSLILGGPEEEEVPSGVIPNLTESIPSSPPQGPPQGPSQSPLSSCCSSFSWSSFSEESSSQKGEDTGTCQGLPDSESSFTYTLDEKVAELVEFLLLKYEAEEPVTEAEMLMIVIKYKDYFPVILKRAREFMELLFGLALIEVGPDHFCVFANTVGLTDEGSDDEGMPENSLLIIILSVIFIKGNCASEEVIWEVLNAVGVYAGREHFVYGEPRELLTKVWVQGHYLEYREVPHSSPPYYEFLWGPRAHSESIKKKVLEFLAKLNNTVPSSFPSWYKDALKDVEERVQATIDTADDATVMASESLSVMSSNVSFSE | 19 | 27 | 11 | – | 6 | 0 | 19 | 4 | 29 | – | 45 | 34 | 37 | – | – | – | 10 | 37 | 0 | 40 |
